Assay results taken from patent US20140072613A1, “Compositions and Methods for Treating Cutaneous Scarring” (priority 2012, published 2014).

Tests used:
Experiment in all cases: cell-based or functional assay
[1] = target: CHK2(R145W)(h) (human) (UniProt O96017)
[2] = target: CaMKI(h) (human) (UniProt Q14012)
[3] = target: CaMKIV(h) (human) (UniProt Q16566)
[4] = target: EGFR(T790M,L858R)(h) (human) (UniProt P00533)
[5] = target: EphA7(h) (human) (UniProt Q15375)
[6] = target: T1, IKKα(h) (human) (UniProt O15111)
T1 sequence (looked up): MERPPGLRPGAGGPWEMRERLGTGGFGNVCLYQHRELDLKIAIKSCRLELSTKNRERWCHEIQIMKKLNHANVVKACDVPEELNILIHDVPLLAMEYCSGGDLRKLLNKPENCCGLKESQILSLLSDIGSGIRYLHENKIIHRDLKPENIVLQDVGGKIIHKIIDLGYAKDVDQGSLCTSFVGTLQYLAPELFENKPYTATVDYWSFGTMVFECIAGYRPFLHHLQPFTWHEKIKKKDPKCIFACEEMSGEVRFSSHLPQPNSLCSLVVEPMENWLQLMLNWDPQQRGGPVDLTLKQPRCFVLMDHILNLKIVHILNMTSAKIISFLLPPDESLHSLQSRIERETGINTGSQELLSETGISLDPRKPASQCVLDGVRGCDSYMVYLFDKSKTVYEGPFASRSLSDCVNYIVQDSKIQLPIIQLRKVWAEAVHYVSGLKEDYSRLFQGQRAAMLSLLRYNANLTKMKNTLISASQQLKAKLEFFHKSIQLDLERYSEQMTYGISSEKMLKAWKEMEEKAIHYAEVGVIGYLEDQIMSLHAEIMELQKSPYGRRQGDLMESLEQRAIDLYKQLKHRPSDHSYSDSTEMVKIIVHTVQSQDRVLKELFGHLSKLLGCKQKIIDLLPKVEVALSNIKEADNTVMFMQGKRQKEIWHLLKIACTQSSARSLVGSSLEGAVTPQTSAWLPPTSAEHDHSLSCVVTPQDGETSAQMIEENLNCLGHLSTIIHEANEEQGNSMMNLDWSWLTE

[7] = target: MAPKAP-K2(h) (human) (UniProt P49137)
[8] = target: Met(Y1248C)(h) (human) (UniProt P08581)
[9] = target: Met(Y1248D)(h) (human) (UniProt P08581)
[10] = target: T2, PDK1(h) (human) (UniProt O15530)
T2 sequence (looked up): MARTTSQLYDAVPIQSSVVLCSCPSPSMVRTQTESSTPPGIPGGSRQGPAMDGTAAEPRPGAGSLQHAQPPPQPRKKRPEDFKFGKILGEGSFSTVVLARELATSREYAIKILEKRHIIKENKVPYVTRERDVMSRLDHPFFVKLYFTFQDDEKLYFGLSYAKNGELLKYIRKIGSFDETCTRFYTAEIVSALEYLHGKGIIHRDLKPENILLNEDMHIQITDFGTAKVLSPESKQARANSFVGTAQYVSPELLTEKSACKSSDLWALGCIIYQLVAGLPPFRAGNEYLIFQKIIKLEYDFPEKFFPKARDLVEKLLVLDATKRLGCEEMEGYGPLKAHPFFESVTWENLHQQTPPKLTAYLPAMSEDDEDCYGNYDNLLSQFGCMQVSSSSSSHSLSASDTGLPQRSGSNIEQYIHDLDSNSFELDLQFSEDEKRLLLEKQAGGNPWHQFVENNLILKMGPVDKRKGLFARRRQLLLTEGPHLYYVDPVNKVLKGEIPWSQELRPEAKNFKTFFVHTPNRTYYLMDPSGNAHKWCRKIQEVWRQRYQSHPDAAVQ

[11] = target: T3, Tec(h)activated (human) (UniProt P42680)
T3 sequence (looked up): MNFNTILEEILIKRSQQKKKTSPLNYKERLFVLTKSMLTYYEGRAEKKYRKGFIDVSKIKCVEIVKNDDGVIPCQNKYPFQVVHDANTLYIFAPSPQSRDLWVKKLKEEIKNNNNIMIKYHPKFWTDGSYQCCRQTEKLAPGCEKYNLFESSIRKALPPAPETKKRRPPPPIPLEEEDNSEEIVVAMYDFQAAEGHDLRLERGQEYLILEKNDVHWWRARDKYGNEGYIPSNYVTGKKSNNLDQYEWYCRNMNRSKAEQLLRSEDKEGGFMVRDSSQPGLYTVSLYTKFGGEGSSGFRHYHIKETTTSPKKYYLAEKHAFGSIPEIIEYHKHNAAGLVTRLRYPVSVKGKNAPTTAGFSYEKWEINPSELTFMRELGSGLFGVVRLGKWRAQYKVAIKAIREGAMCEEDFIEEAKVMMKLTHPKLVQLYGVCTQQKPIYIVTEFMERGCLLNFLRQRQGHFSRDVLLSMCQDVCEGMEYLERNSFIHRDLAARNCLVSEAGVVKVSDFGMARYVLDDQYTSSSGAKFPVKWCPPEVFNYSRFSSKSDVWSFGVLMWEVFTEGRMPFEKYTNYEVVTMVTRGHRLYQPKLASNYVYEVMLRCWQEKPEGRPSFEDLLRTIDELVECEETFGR

CaMKI(h) (human), sequence (Q14012 whole entry): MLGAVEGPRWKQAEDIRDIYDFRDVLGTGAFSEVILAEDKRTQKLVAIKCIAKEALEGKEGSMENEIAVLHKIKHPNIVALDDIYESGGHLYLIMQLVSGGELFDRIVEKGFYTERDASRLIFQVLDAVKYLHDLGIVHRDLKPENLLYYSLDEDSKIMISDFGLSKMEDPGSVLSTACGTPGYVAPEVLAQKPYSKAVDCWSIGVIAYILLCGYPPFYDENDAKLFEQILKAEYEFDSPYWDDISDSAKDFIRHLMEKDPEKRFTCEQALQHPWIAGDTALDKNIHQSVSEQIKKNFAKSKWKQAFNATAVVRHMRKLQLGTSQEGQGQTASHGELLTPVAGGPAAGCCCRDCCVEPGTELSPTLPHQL
MAPKAP-K2(h) (human), sequence (P49137 46-400 limits assumed): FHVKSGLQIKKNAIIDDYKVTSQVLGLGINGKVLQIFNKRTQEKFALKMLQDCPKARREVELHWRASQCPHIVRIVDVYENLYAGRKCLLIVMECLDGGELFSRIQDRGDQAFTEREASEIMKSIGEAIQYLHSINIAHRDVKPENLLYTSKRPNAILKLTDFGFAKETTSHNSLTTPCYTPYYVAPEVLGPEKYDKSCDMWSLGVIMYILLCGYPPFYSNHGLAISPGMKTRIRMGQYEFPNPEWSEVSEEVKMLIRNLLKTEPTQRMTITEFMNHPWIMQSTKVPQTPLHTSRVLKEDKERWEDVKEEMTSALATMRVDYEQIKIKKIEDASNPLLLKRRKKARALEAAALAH
CaMKIV(h) (human), sequence (Q16566 whole entry): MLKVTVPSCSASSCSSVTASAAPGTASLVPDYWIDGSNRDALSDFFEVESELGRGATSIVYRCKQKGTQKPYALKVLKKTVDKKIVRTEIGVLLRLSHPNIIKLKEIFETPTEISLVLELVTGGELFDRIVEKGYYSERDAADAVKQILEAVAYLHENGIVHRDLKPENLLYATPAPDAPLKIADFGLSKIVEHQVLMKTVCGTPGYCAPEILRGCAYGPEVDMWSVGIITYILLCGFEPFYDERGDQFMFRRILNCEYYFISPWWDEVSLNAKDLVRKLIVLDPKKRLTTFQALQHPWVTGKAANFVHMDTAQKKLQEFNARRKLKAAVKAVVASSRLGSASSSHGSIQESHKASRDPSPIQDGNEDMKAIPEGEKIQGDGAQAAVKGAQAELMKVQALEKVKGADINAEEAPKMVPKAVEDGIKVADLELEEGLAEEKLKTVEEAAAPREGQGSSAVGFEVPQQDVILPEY
CHK2(R145W)(h) (human), sequence (O96017 5-543 R145W limits assumed): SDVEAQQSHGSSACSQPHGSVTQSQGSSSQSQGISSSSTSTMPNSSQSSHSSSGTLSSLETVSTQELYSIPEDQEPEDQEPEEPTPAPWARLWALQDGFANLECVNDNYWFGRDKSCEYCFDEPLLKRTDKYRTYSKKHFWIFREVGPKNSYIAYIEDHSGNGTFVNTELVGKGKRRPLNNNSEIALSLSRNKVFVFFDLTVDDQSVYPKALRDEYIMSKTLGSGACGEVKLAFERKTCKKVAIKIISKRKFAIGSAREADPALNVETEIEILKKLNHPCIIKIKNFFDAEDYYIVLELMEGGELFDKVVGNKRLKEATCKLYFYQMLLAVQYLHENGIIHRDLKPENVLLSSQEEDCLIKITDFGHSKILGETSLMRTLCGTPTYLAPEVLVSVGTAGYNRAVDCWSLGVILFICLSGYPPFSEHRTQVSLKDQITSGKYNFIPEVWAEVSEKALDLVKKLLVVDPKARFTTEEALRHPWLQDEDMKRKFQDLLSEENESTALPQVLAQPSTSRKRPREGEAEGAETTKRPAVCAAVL
EphA7(h) (human), sequence (Q15375 577-998 limits assumed): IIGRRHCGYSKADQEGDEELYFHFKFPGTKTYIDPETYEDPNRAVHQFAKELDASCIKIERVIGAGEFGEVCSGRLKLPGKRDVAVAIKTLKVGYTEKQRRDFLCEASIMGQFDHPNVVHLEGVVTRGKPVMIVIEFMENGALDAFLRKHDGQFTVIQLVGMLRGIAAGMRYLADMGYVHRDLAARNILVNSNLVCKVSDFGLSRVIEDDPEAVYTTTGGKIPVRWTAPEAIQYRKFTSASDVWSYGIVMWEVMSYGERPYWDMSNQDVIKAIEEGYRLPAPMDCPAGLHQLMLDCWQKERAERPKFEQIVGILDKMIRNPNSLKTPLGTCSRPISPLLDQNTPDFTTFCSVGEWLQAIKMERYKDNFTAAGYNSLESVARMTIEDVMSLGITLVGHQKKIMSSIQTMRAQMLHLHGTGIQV

% activity, 100 µM [1]: 3% | % activity, 100 µM [2]: -1% | inhibition of kinase activity at 100 µM [2]: > 65% | % activity, 100 µM [3]: -1% | % activity, 100 µM [4]: 53% | % activity, 100 µM [5]: 189% | % activity, 100 µM [6]: 50% | % activity, 100 µM [7]: 9% | inhibition of kinase activity at 100 µM [7]: > 65% | % activity, 100 µM [8]: 73% | % activity, 100 µM [9]: 218% | % activity, 100 µM [10]: 178% | % activity, 100 µM [11]: 33%
Substance: MMI-0500 (peptide)
